For experiment [1], the target named is T1, cation-dependent mannose 6-phosphate receptor (sCD-MPR) (Bos taurus, UniProt P11456, N59Q/N85Q/N96Q/N115Q).
T1 sequence (P11456 29-182 N59Q/N85Q/N96Q/N115Q): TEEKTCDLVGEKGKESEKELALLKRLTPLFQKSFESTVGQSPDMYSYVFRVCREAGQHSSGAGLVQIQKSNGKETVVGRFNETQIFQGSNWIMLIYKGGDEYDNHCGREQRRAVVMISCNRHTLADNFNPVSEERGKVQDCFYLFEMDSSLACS
The experiment is described as follows: […]-1H HSQC NMR titration. The experiment is classed as binding.

Experiment [2] has as its target β-glucuronidase (Homo sapiens) (UniProt P08236). Conditions: cited from earlier work.
Experiment [3] shares this target. The following applies: cited from earlier work. This is another data set of the same source.
For experiment [4] the target is unchanged. Conditions: cited from earlier work. The source holds these as a separate data set.

Where two headings read alike, the source gives them in different places.

One may read the Kd as a measure of binding affinity in units of concentration.

β-glucuronidase (Homo sapiens), sequence (P08236 23-651): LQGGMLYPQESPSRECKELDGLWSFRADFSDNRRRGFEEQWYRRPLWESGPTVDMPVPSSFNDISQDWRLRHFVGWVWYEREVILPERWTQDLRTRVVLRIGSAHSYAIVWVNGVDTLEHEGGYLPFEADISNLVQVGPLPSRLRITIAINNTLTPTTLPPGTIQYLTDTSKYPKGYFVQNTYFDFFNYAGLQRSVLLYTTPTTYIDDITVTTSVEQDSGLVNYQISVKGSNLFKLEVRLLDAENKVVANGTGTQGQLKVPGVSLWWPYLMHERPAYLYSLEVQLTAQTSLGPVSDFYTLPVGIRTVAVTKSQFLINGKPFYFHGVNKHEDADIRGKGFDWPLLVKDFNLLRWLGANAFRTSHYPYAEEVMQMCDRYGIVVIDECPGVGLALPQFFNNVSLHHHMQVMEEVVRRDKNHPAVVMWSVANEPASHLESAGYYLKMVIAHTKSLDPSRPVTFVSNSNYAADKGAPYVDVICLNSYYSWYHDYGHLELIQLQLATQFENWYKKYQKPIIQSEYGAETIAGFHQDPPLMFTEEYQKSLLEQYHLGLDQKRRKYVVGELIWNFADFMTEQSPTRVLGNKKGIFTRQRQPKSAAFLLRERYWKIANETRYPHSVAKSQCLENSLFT

Consider `O=P(O)(O)OC[C@H]1OC(O)[C@@H](O)[C@@H](O)[C@@H]1O` (stereo partly shown) [mannose 6-phosphate], for which the Kd in experiment [1] is approximately 1000 µM.
For the compound “cation-dependent mannose 6-phosphate receptor (from UniProt P11456)”, the Kd in experiment [2] was 0.00028 µM.
On to “cation-dependent mannose 6-phosphate receptor (sCD-MPR) ECD (from UniProt P11456)”, for which the Kd in experiment [3] was 0.0014 µM.
Regarding “cation-dependent mannose 6-phosphate receptor (sCD-MPRHis6) ECD (from UniProt P11456)”, in experiment [4], the equilibrium dissociation constant (Kd) was 0.0015 µM.

(Values after PMC2802658 (Biochemistry, 2010).)
